These results are taken from PMC4498918.

Common to all, as to assay: EMSA
Data set [1] deals with δ2D60A (Streptococcus pyogenes plasmid pSM19035). As to conditions: EMSA: 50 mM Tris-HCl pH 7.5, 50 mM NaCl, 10 mM MgCl2 (buffer B; Fig 7 legend says buffer C), with or without 1 mM ATP or ADP, 15 min at 37°C, 0.1 nM DNA; 4 or …. In general terms: Mobility shift assays separate free from complexed probe on a gel.
Data set [2] concerns δ2D211A (Streptococcus pyogenes plasmid pSM19035). The following applies: EMSA: 50 mM Tris-HCl pH 7.5, 50 mM NaCl, 10 mM MgCl2 (buffer B; Fig 7 legend says buffer C), with or without 1 mM ATP or ADP, 15 min at 37°C, 0.1 nM DNA; 4 or ….
For data set [3], the system named is δ2K242A (Streptococcus pyogenes plasmid pSM19035). The following applies: EMSA: 50 mM Tris-HCl pH 7.5, 50 mM NaCl, 10 mM MgCl2 (buffer B; Fig 7 legend says buffer C), with or without 1 mM ATP or ADP, 15 min at 37°C, 0.1 nM DNA; 4 or ….
In data set [4] the test system is δ2 (ParA-like) (Streptococcus pyogenes plasmid pSM19035). As to conditions: 1 mM ATP, 10 mM Mg2+; KDapp, cooperative; EMSA: 50 mM Tris-HCl pH 7.5, 50 mM NaCl, 10 mM MgCl2 (buffer B; Fig 7 legend says buffer C), with or without 1 mM ATP or ADP, 15 min at 37°C, 0.1 nM DNA; 4 or ….

With 423-bp HindIII-KpnI parS2 DNA, the binding signal (fold higher affinity than wt) was 2 in data set [1] and above 6 in data set [2]. Besides, the binding signal (fold lower binding than wt) in data set [3] is 20. For the same substance, in data set [4], the Kd came to 140 nM.
